According to patent US20210363269A1 (ALX ONCOLOGY, published 2021):
Substitutions are numbered along the chain they refer to.

T1: mouse 129 SIRP-α D1 domain (mouse (129 strain), UniProt P97797 32-150)
T1 construct: also called m129
T1 chain: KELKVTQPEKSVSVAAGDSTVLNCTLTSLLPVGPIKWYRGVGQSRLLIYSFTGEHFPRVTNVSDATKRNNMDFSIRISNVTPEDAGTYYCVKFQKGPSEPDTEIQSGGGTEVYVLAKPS

T2: NOD mouse SIRP-α D1 domain (mouse (NOD strain))
T2 chain: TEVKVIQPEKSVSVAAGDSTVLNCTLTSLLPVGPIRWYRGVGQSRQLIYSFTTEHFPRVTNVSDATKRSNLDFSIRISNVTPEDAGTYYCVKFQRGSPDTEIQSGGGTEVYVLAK

T3: BALB/c mouse SIRP-α D1 domain (mouse (BALB/c strain))
T3 chain: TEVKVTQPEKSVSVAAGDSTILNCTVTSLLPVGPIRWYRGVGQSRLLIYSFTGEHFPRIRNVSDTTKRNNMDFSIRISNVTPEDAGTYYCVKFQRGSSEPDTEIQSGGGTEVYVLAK

T4: C57BL/6 mouse SIRP-α D1 domain (mouse (C57BL/6 strain), UniProt P97797 32-148)
T4 sequence: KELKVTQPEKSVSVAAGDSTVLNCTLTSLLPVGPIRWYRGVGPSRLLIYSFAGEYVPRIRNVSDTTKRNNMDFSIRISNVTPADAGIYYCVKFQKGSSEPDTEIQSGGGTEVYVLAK

T5: mouse 129 SIRP-α (mouse (129 strain), UniProt P97797 32-150)
T5 construct: also called m129
T5 chain: T1 chain

B1: AB3c (antibody, mouse IgG2a, V domains shown)
VH: AVTLDESGGGLQTPGGALSLVCKASGFIFSDYGMNWVRQAPGKGLEFVAQITSGSRTYYGAAVKGRATISRDNRQSTVKLQLNNLRAEDTGIYFCARDFGSGVGSIDAWGNGTEVIVSS
VL: ALTQPASVSANLGGTVKITCSGSRGRYGWYQQRSPGSAPVTVIYRDNQRPSNIPSRFSSSTSGSTSTLTITGVQADDESVYFCGSYDGSIDIFGAGTTLTVL
notes: Full-length mouse IgG2a
B2: antibody 3 (antibody, V domains shown)
VH: B1 VH
VL: B1 VL
notes: also called AB3; S3
B3: antibody 201 (antibody, V domains shown)
VH: DVQLVESGGAVVRPGETLRLSCTASGFTFSSYAMSWVRQAPGKGLEWVSGISASGSDTYYADSVKGRSTISRDNSKNTLYLRMSSLTAEDTAVYYCARETWNHLFDYWGLGTLVTVSS
VL: ALTQPASVSANPGETVKITCSGGGTSSYYGWYQQKSPGSAPVTLIHSDDKRPSDIPSRFSGSASGSTATLTITGVQVEDEAVYYCGGYDYTTYVNTFGAGTTLTVL
notes: also called S201
B4: antibody 218 (antibody, V domains shown)
VH: DVQLVESGGGVVRPGESLTLSCTASGFTFTSSTMNWVRQAPGEGLDWVSSISTSGVITYYADSVKGRATISRDNSKNTLYLRLFSLRADDTAIYYCATDTFDHWGPGTLVTVSS
VL: ALTQPASVSANPGETVKITCFGSSGNYGWFQQKSPGSAPVTVIHYNNKRPSDIPSRFSGSKSGSTGTLTITGVRAEDEAVYFCGAWETGSATFGAGTTLTVL
notes: also called AB218; S218
B5: antibody 202 (antibody, V domains shown)
VH: DVQLVESGGGVVRPGESLRLSCAASGFTFSSYAMSWVRQAPGKGLEWLAGISAGGSDTYYIDSVKGRFTISRDNSKNSLYLQMNSLTAEDTAVYYCARETWNHLFDYWGLGTLVTVSS
VL: ALTQPASVSANPGETVKITCSGGGYYSTYYGWYQQRSPGSAPVTVIHSDDKRPSDIPSRFSGSASGSAATLTITGVRVEDEAVYYCAGYDGRTYLNTFGAGTTLTVL
notes: also called S202
B6: antibody 73 (antibody, V domains shown)
VH: DVQLVESGGGVVRPGESLRLSCEASGFTFSSNAMSWARQAPGKGLEWVAGISSGSDTYYGDSVKGRLTISRDNSKNILYLQMNSLTAEDTAVYYCARETWNHLFDYWGLGTLVTVSS
VL: ALTQPASVSANPGETVKITCSGGIYSSYYYAWYQQKSPGSAPVTLIYSDDKRPSNIPSRFSGSASGSTATLTITGVRAEDEAVYFCGGYDQSSYTNPFGAGTTLTVL
notes: also called S73
B7: antibody 132 (antibody, V domains shown)
VH: DVQLVESGGGVVRPGESLRLSCAASGFSFRSYAMNWVRQAPGEGLEWVSRINSGGGGTDYADSVKGRFTISRDNSKNTLYLQMNSLRAEDTAVYYCAKQYDWNSFFDYWGLGALVTVSS
VL: ETVLTQSPATLSVSPGERATLSCRASQTVGSKLAWHQQKPGQAPRLLIYDASNRATGIPDRFSGSGSGTDFTLTISSPQTEDSAVYYCQQYYYWPPYRFGGGTKVEIK
notes: also called AB132; S132
B8: antibody 198 (antibody, V domains shown)
VH: B7 VH with R30S, Y32H, D62E, K76E, S104G
VL: B7 VL with S52T, P78L
notes: also called S198
B9: antibody 191 (antibody, V domains shown)
VH: B7 VH with R30S, D62E, K76E, S104G
VL: B7 VL with S52T, S77G, P78L
notes: also called S191
B10: antibody 163 (antibody, V domains shown)
VH: DVQLVESGGGLVRPGESLRLSCAASGFTFTNYAVTWVRQAPGEGLEWVSLISVTGTTYYADSVKGRFTISRDNSKSTLYLQMNGLRAEDTAVYYCAKVTWKNVFDYWGLGTLVTVSS
VL: EIVLTQSPGTLSVSPGERATFSCRASQTVGSKLAWYQQKPGQAPRLLIYDANTRATGIPARFSGSGSGTEFTLTISSLQSEDFAVYYCQQHTDWPPYTFGGGTKVEIK
notes: also called S163
B11: antibody 164 (antibody, V domains shown)
VH: B10 VH
VL: B10 VL with G66R
notes: also called S164
B12: antibody 162 (antibody, V domains shown)
VH: B10 VH with G84S
VL: B10 VL
notes: also called S162
B13: antibody 121 (antibody, V domains shown)
VH: VQLVESGGGVVQPGGSLRLSCAASGFSFSNFAMTWVRQAPGEGLEWVSTIGSGDTYYADSVKGRFTISRDNSKNTLYLQMNSLRAEDTAVYYCAKDSTVSWSGDFFDYWGLGTLVTVSS
VL: EIVLTQSPATLSVSPGERATFSCRASQNVKNDLAWYQQRPGQAPRLLIYAARIRETGIPERFSGSGSGTEFTLTITSLQSEDFAVYYCQQYYDWPPFTFGGGTKVEIK
notes: also called S121
B14: antibody 120 (antibody, V domains shown)
VH: B13 VH with L114R
VL: B13 VL
notes: also called S120
B15: antibody 175 (antibody, V domains shown)
VH: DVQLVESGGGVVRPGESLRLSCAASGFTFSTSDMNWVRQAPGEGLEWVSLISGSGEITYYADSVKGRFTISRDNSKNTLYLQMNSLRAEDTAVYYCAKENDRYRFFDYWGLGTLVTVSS
VL: ETVLTQSPGILSLSPGERATLTCRASQSVYTYLAWYQEKPGQAPRLLIYGASSRAAGIPDRFSGSGSGTEFTLTISSLQSEDFAVYYCQQYYDRPPLTFGGGTKVEIK
notes: also called S175
B16: antibody 189 (antibody, V domains shown)
VH: DVQLVESGGGVVRPGESLRLSCAASGFTFSSSDMNWVRQAPGEGLEWVSLISGSGEITYYADSVKGRFTISRDNSKNTLYLQMNSLRAEDTAIYYCAKENNMYRFFDYWGLGTLVTVSS
VL: B15 VL with I10T, T22S, E38Q, A43P, Y49H, G50A, S52R, S53N
notes: also called S189

Legend:
[1] = molecular target: T1, mouse 129 SIRP-α D1 domain; assay: SPR, ProteOn, antibody on chip
Experimental: (§1) All experiments were performed at 25° C. using a SPR-based ProteOn XPR36 biosensor (BioRad, Inc, Hercules, Calif.) equipped with GLC or NLC sensor chips. […] Purification was carried out by standard Protein A affinity column chromatography and eluted antibodies were stored in PBS buffer.
(§2) For the method using GLC chip, the analytes were injected and flowed over anti-SIRPα antibodies immobilized (˜1000 RUs) on GLC chips using Proteon™ Amine Coupling Kit. For the immobilization step, GLC chip was activated with EDAC/Sulpho-NHS 1:1 (Biorad) diluted 1/100 for 300 s at 25 μL/min. Anti-SIRPα antibodies were diluted to 80 nM concentration in 10 mM sodium acetate buffer pH 4.5 and immobilized to the chip at 30 μL/min for 50 s. Chip was inactivated with ethanolamine for 300 s at 25 μL/min. The analytes (e.g., SIRP-α from different species, SIRP-β, SIRP-γ) were injected in a “one-shot” kinetic mode at nominal concentrations of 100, 33, 11, 3.7, 1.2 and 0 nM. Association times were monitored for 90 s at 100 μL/min, and dissociation times were monitored for 1200 s. The surfaces were regenerated with a 2:1 v/v blend of Pierce IgG elution buffer/4M NaCl.
(§3) Next, the binding kinetics of various antibody clones to selected mouse SIRP-α proteins were determined as described above. Mouse proteins that were tested include BALBc (SEQ ID NO:10), BL6 (SEQ ID NO:9), NOD (SEQ ID NO:8), and m129 (SEQ ID NO:7) SIRP-α proteins. Antibody clones labeled as “c” were tested as full-length mouse IgG2a antibodies; antibody clones labeled as “a” were tested as full-length human IgG1 antibodies with L234A, L235A, G237A, and N297A mutations.

[2] = molecular target: T2, NOD mouse SIRP-α D1 domain; assay: SPR, ProteOn, antibody on chip
Experimental: as §1, §2, §3

[3] = molecular target: T3, BALB/c mouse SIRP-α D1 domain; assay: SPR, ProteOn, antibody on chip
Experimental: as §1
(§4) The running buffer was PBS pH 7.4 with 0.01% Tween-20 (PBST+). All analytes were used at their nominal concentrations as determined by A280 Absorbance and using their molar calculated extinction coefficient.
as §2

[4] = molecular target: T4, C57BL/6 mouse SIRP-α D1 domain; assay: SPR, ProteOn, antibody on chip
Experimental: as §1, §4, §2

human SIRP-α v1 = molecular target: T6, human SIRP-α v1 (human, UniProt P78324 31-149); assay: SPR
T6 construct: also called Human v1; Human V1
Outline: (§5)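 KD values were derived as kd/ka from apparent rate constants obtained by globally fitting double-referenced data to a simple Langmuir model. The data came from a ProteOn XPR36 biosensor run at 25° C in PBS pH 7.4 with 0.01% Tween-20. There, purified antibodies sat on a GLC chip by amine coupling or on an NLC chip by biotinylated Protein A capture, and SIRP analytes were injected in one-shot kinetic mode at nominal concentrations set from A280 absorbance.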

human SIRP-α v2 = molecular target: T7, human SIRP-α v2 (human); assay: SPR
T7 construct: also called Human v2; Human V2
Outline: as §5

mouse 129 SIRP-α = molecular target: T5, mouse 129 SIRP-α; assay: SPR Koff +/-
Outline: as §5

T6 sequence (P78324 31-149 limits assumed): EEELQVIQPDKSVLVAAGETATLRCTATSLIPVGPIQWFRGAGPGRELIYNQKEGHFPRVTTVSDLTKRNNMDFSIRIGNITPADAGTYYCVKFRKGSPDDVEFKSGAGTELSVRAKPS

Binder | Kd (human SIRP-α v1) [nM] | Kd (human SIRP-α v2) [nM] | binding result (mouse 129 SIRP-α) | further results
B1 |  |  |  | Kd [1]: 22 nM; koff [1]: 0.0118 s⁻¹; kon [1]: 534000 M⁻¹ s⁻¹; Kd [2]: 1.43 nM; koff [2]: 0.00143 s⁻¹; kon [2]: 999000 M⁻¹ s⁻¹; Kd [3]: 5.31 nM; koff [3]: 0.00412 s⁻¹; kon [3]: 776000 M⁻¹ s⁻¹; Kd [4]: 15 nM; koff [4]: 0.00619 s⁻¹; kon [4]: 412000 M⁻¹ s⁻¹
B2 | 0.162 | 0.0767 |  | 
B3 | < 0.001 | 0.00487 |  | 
B4 | 0.123 | 0.276 |  | 
B5 | < 0.001 | < 0.001 |  | 
B6 | < 0.001 | < 0.001 |  | 
B7 | 0.426 | 1.86 | no binding | 
B8 |  |  | no binding | 
B9 |  |  | no binding | 
B10 |  |  | no binding | 
B11 |  |  | no binding | 
B12 |  |  | no binding | 
B13 | 0.157 | 0.0501 | no binding | 
B14 | 0.214 | 0.0856 | no binding | 
B15 | 0.137 | 0.662 |  | 
B16 | 0.31 | 1.9 |  | 
